B1: HBGF-0.8-P2: 10-kDa heparin-binding growth factor; truncated porcine CTGF starting at residue 248 (SEQ ID NO: 2 N-terminus) (protein)
chain: ENIKKGKKCIRTPKISKPVKFELSGCTSVKTYRAKFCGVCTDGRCCTPHRTTTLPVEFKCPDGEVMKKSMMFIKTCACHYNCPGDNDIFESLYYRKMYGDMA
B2: HBGF-0.8-P1: 10-kDa heparin-binding growth factor; N-terminally truncated porcine CTGF starting at residue 247 (SEQ ID NO: 1 N-terminus) (protein)
chain: EENIKKGKKCIRTPKISKPVKFELSGCTSVKTYRAKFCGVCTDGRCCTPHRTTTLPVEFKCPDGEVMKKSMMFIKTCACHYNCPGDNDIFESLYYRKMYGDMA

Key:
[1] = Heparin affinity chromatography (NaCl required for elution); assay type: binding
Description: Fractions that contained HBGF activity (fractions 16-19 collected after the cation exchange chromatography and heparin affinity chromatography) were pooled, diluted, and subjected to a second cycle of heparin affinity FPLC using a TSK heparin 5PW column. To perform the second heparin affinity purification step, biologically active HBGF fractions containing the 0.8 M NaCl eluate from the EconoPac heparin purification step were pooled, diluted 3-fold with 20 mM Tris-HCl (pH 7.4), and clarified by passage through a 0.2-μm filter. The sample was applied at 2 ml/min to a TSK heparin 5PW column (0.8×7.5 cm; TosoHaas, Philadelphia, Pa.), that was washed and eluted as described above, except that CHAPS was omitted from the buffers and fractions of 0.5 ml were collected. […] HBGF polypeptide was again eluted by 0.8 M NaCl (fractions 31-36), but was resolved as two peaks of mitogenic activity which had distinct heparin binding properties. The activity peaks were termed HGBF-0.8-P1 for fractions 31-34 and HGBF-0.8-P2 for fractions 35 and 36. To assess the relative mitogenic capability of HBGFs with IGF-1, EGF, bFGF, and PDGF-AB, DNA synthesis assays on 3T3 cells were performed (Table 4). Biologically active fractions containing the 0.3-0.6 M NaCl eluate from the Bio-Rex column were pooled, diluted 3-fold with 20 mM Tris-HCL (pH 7.4) containing 0.1% CHAPS, passed through a 0.45-μm membrane filter, placed in a siliconized polypropylene vessel, and applied with a peristaltic pump to an EconoPac heparin column (0.7×3.6 cm; Bio-Rad) at 2 ml/min. The heparin column was then washed with 50 ml of 20 mM Tris-HCl buffer, 0.2 M NaCl, 0.1% CHAPS and developed at 1 ml/min with a 40 ml gradient of 0.1-2.0 M NaCl in 20 mM Tris-HCl, 0.1% CHAPS (pH 7.4) using a fast protein liquid chromatography (FPLC) system (Pharmacia Biotech Inc.). Fractions (1 ml) were collected into siliconized tubes during NaCl gradient elution and tested for 3T3 cell mitogenic activity.

Balb/c 3T3 fibroblasts = assay: DNA synthesis ([3H]thymidine incorporation) assay in confluent quiescent Balb/c 3T3 cells; assay type: cell-based
Description: To assess the relative mitogenic capability of HBGFs with IGF-1, EGF, bFGF, and PDGF-AB, DNA synthesis assays on 3T3 cells were performed (Table 4). Biologically active fractions containing the 0.3-0.6 M NaCl eluate from the Bio-Rex column were pooled, diluted 3-fold with 20 mM Tris-HCL (pH 7.4) containing 0.1% CHAPS, passed through a 0.45-μm membrane filter, placed in a siliconized polypropylene vessel, and applied with a peristaltic pump to an EconoPac heparin column (0.7×3.6 cm; Bio-Rad) at 2 ml/min. The heparin column was then washed with 50 ml of 20 mM Tris-HCl buffer, 0.2 M NaCl, 0.1% CHAPS and developed at 1 ml/min with a 40 ml gradient of 0.1-2.0 M NaCl in 20 mM Tris-HCl, 0.1% CHAPS (pH 7.4) using a fast protein liquid chromatography (FPLC) system (Pharmacia Biotech Inc.). Fractions (1 ml) were collected into siliconized tubes during NaCl gradient elution and tested for 3T3 cell mitogenic activity. Column fractions were tested for their ability to stimulate DNA synthesis as measured by [^3H]thymidine incorporation into the DNA of confluent quiescent Balb/c 3T3 cells grown in 200 μl of Dulbecco's modified Eagle's medium, 10% bovine calf serum in 96-well culture plates as described (Kim, G. Y., et al., Biol. Reprod. 52, 561-571 (1995)). Dose-response curves to purified growth factors from ULF were established by assaying each dose in triplicate, with data computed as mean±S.D. Statistical significance of the effects of 1-100 μg/ml porcine heparin (Sigma) on growth factor activity was determined by Students' t test.

[2] = preparation after C8HPLC (step 1), bioactivity diminished due to acid exposure

Molecule	NaCl required for elution from a heparin affinity column [1]	ED50: concentration of HBGF-0.8 preparation required to give 50% maximal DNA synthesis (Balb/c 3T3 fibroblasts; [2])	ED50: concentration of HBGF-0.8 preparation required to give 50% maximal DNA synthesis (Balb/c 3T3 fibroblasts; preparation after TSK-Hep step)	Heparin affinity as compared with HBGF-0.8-P2 ([1]; TSK heparin 5PW column)	ED50: concentration of HBGF-0.8 preparation required to give 50% maximal DNA synthesis (Balb/c 3T3 fibroblasts; preparation after C8HPLC, step 2, bioactivity diminished due to acid exposure)
B1	0.8 M	0.25 mg/L	0.417 mg/L		
B2	0.8 M	0.25 mg/L	2.23 mg/L	lower heparin affinity	0.025 mg/L

From patent US7897732B2, “Antibodies to heparin-binding growth factor (HBGF) polypeptides” (Childrens Hospital Research Foundation, priority 1997, dated 2011)
